According to patent publication US11466066B2, “Variants of human BMP7 protein” (ELI LILLY AND COMPANY, priority 2017, dated 2022):
Numbering of substitutions follows the chain as printed. In names and notes the source's numbering stands.

B1: human BMP7 protein: wild type human BMP7 protein of Example 2; pro or mature form not stated (protein, UniProt P18075 293-431, looked up)
Bone morphogenetic protein 7: STGSKQRSQNRSKTPKNQEALRMANVAENSSSDQRQACKKHELYVSFRDLGWQDWIIAPEGYAAYYCEGECAFPLNSYMNATNHAIVQTLVHFINPETVPKPCCAPTQLNAISVLYFDDSSNVILKKYRNMVVRACGCH
B2: V91M: SEQ ID NO: 2 having the single amino acid mutation V91M (protein, listed as Homo sapiens)
chain: B1 Bone morphogenetic protein 7 with V91M
B3: Y65G: SEQ ID NO: 2 having the single amino acid mutation Y65G (protein, listed as Homo sapiens)
chain: B1 Bone morphogenetic protein 7 with Y65G
B4: I86L: SEQ ID NO: 2 having the single amino acid mutation I86L (protein, listed as Homo sapiens)
chain: B1 Bone morphogenetic protein 7 with I86L
B5: T89A: SEQ ID NO: 2 having the single amino acid mutation T89A (protein, listed as Homo sapiens)
chain: B1 Bone morphogenetic protein 7 with T89A
B6: E60Q: SEQ ID NO: 2 having the single amino acid mutation E60Q (protein, listed as Homo sapiens)
chain: B1 Bone morphogenetic protein 7 with E60Q
B7: V114M: SEQ ID NO: 2 having the single amino acid mutation V114M (protein, listed as Homo sapiens)
chain: B1 Bone morphogenetic protein 7 with V114M
B8: Y65G/I86L/N110G: human mature BMP7 protein variant, SEQ ID NO: 10 (protein)
chain: B1 Bone morphogenetic protein 7 with Y65G, I86L, N110G
B9: D33M: SEQ ID NO: 2 having the single amino acid mutation D33M (protein, listed as Homo sapiens)
chain: B1 Bone morphogenetic protein 7 with D33M
B10: Y65G/I86L/N110G/Y128W: human mature BMP7 protein variant, SEQ ID NO: 7 (protein)
chain: B1 Bone morphogenetic protein 7 with Y65G, I86L, N110G, Y128W
B11: I94F: SEQ ID NO: 2 having the single amino acid mutation I94F (protein, listed as Homo sapiens)
chain: B1 Bone morphogenetic protein 7 with I94F
B12: Y65G/T89A/N110G/Y128F: human mature BMP7 protein variant, SEQ ID NO: 9 (protein)
chain: B1 Bone morphogenetic protein 7 with Y65G, T89A, N110G, Y128F
B13: Y65G/I86L/N110G/Y128F: human mature BMP7 protein variant, SEQ ID NO: 6 (protein)
chain: B1 Bone morphogenetic protein 7 with Y65G, I86L, N110G, Y128F
B14: N110G: SEQ ID NO: 2 having the single amino acid mutation N110G (protein, listed as Homo sapiens)
chain: B1 Bone morphogenetic protein 7 with N110G
B15: I86V: SEQ ID NO: 2 having the single amino acid mutation I86V (protein, listed as Homo sapiens)
chain: B1 Bone morphogenetic protein 7 with I86V
B16: F93V/N110G: human mature BMP7 protein variant F93V/N110G, SEQ ID NO: 4 (protein)
chain: B1 Bone morphogenetic protein 7 with F93V, N110G
B17: Y65G/I86L/T89A/N110G: human mature BMP7 protein variant, SEQ ID NO: 5 (protein)
chain: B1 Bone morphogenetic protein 7 with Y65G, I86L, T89A, N110G
B18: A37P: SEQ ID NO: 2 having the single amino acid mutation A37P (protein, listed as Homo sapiens)
chain: B1 Bone morphogenetic protein 7 with A37P
B19: F93V: SEQ ID NO: 2 having the single amino acid mutation F93V (protein, listed as Homo sapiens)
chain: B1 Bone morphogenetic protein 7 with F93V
B20: Y65G/V114M: human mature BMP7 protein variant, SEQ ID NO: 11 (protein)
chain: B1 Bone morphogenetic protein 7 with Y65G, V114M

Key:
[1] = Thermal unfolding assay (circular dichroism); assay type: physicochemical; conditions: CD at 208 nm; 10 mM citrate, 300 mM NaCl, pH 7.4
Experimental: The effect of temperature on the conformational stability of human BMP7 protein variants may be followed by circular dichroism (CD) on a Jasco J-810 instrument equipped with a thermoelectric sample compartment. Briefly stated, 0.2-1.0 mg/mL pro-BMP7 may be formulated in storage buffer (10 mM citrate, 300 mM NaCl, pH 7.4) and loaded into a 0.02 cm path-length CD cuvette. The sample may be heated from 20 to 80° C. at a linear rate of 1° C./minute and the resulting CD signal at 208 nm may be recorded every 0.2° C. using a 1 second signal response time. A non-linear fit to equation 1 may be performed by the program JMP (SAS Institute Inc, Cary, N.C.) to obtain the thermal unfolding mid-point (Tm).
[formula] where, Yu and Yf are fit and represent the Y-intercept of the pre- and post-transition baselines, respectively. Mu and Mf are fit and represent the slope of the pre- and post-transition baselines, respectively. Hm and S are fit and represent enthalpy and entropy, respectively. T is the measured temperature in Kelvin units.

[2] = tested on: RAR alpha; assay: RAR alpha protein expression, Western Blot; assay type: cell-based, mouse; conditions: MFc7 and 3T3-L1 cell lines; 1 μg/mL, 48 hours; Western Blot intensity
Experimental: (§1) 3T3-L1 fibroblasts and MFc7 mouse renal myofibroblasts may be maintained under routine cell culture conditions in DMEM/10% calf serum medium or OPTI-MEM/10% FBS medium, respectively. The cells may be plated in 10 cm tissue culture plates at a seeding density of 500,000 cells/plate. After 48 hours, the cells may be washed with PBS prior to the addition of either DMEM/2% dialyzed FBS or OPTI-MEM/2% dialyzed FBS medium containing 1 μg/mL human BMP7 protein or 1 μg/mL of a human BMP7 protein variant. The cells may be incubated for 48 hours and then rinsed with ice-cold PBS, and then lysed with Protein Extraction Reagent. Then lysates may be centrifuged at 14,000×g for 15 minutes. A Bradford protein assay may be performed to determine the protein concentration of each lysate. Equivalent amounts of protein (for example, 25 μg) may be resolved by SDS-PAGE and then transferred to nitrocellulose membranes for Western Blot analysis. The membranes may be probed with an anti-RAR alpha antibody and/or an anti-RAR gamma antibody.

[3] = tested on: RAR gamma; assay: RAR gamma protein expression, Western Blot; assay type: cell-based, mouse; conditions: MFc7 and 3T3-L1 cell lines; 1 μg/mL, 48 hours; Western Blot intensity
Experimental: as §1

[4] = tested on: MFc7 mouse renal myofibroblasts; assay: MFc7 bioassay; assay type: cell-based; conditions: EC50 of wild type BMP7 protein/EC50 of the variant
Experimental: MFc7 mouse renal myofibroblasts (mouse kidney fibroblast cell line) may be maintained under routine cell culture conditions in OPTI-MEM/10% FBS medium. The cells may be plated in 10 cm tissue culture plates at a seeding density of 500,000 cells/plate. After approximately 48 hours, the cells may be washed with phosphate buffered saline (PBS) prior to the addition of OPTI-MEM/2% dialyzed fetal bovine serum (FBS) medium containing 1 μg/ml BMP7 protein or 1 μg/ml of a BMP7 protein variant and incubated for 48 hours. After treatment the cells may be rinsed with PBS and stored at −80° C. for 20 minutes. After thawing the cells at 37° C. for 30 minutes 100 μl of para-nitrophenyl phosphate (PNPP) may be added. The plate may be incubated at 37° C. for 1 hour. The absorbance at 405 nm may be read utilizing a plate reader. The average relative potency (EC50 of wild type BMP7 protein/EC50 of the BMP7 protein variant) of certain human BMP7 protein variants of the present invention may be calculated based on such readings.

[5] = tested on: female CB17SC-M SCID mice; assay: Ectopic bone formation model; assay type: in vivo; conditions: 3 μg/100 μl subcutaneous; CT scan on Day 13
Experimental: Ectopic bone formation (EBF) may be measured in female CB17SC-M SCID mice upon subcutaneous administration of certain human BMP7 protein variants of the present invention compared to wild type human mature BMP7.
Briefly described, the mice may be anesthetized with 3% isoflurane and are injected with 3 μg/100 μl of the human BMP7 protein variant, wild type human mature BMP7 protein or a vehicle control on the back left flank. The back right flank of each mouse may serve as a control (no injection). Vehicle (pH 4.5): 0.5% Sucrose, 2.5% Glycine, 5 mM L-Glutamic Acid, 5 mM NaCl, 0.01% polysorbate 80, and, 0.1% BSA.
EBF may be measured by a CT scan on Day 13 after injection of the human BMP7 protein variant or wild type human mature BMP7 protein.

[6] = single amino acid change (Table 4)
[7] = multiple amino acid changes (Table 3)

Molecule	Average Relative Potency [4, 6]	Average Relative Potency [4, 7]	also measured
human pro-BMP7 protein variant V114M: human pro-BMP7 protein variant with V114M in the mature domain			thermal unfolding mid-point (Tm) [1]: 64.5 °C
B1			RAR alpha protein expression [2]: stimulated; RAR gamma protein expression [3]: stimulated
B2	3.3		
B3	1.3		
B4	5.9		
B5	3		
B6	5.5		
B7	9.4		
B8		8.7	
B9	3.3		
B10		16	Ectopic Bone Formation Volume [5]: 11 mm^3
B11	7.5		
B12		6.2	
B13		7	
B14	1.7		
B15	17.4		
B16		9	
B17		10	
B18	7.5		
B19	16		
B20		5.0	
